From patent US20130189225A1 (ASSOCIATION INSTITUT DE MYOLOGIE, published 2013)

T1: murine G3BP (mouse cyclophilin C-associated protein), native protein of mouse serum (mouse, UniProt Q07797 19-577)
T1 construct: also called G3BP murine protein homolog; CyCAP
T1 sequence: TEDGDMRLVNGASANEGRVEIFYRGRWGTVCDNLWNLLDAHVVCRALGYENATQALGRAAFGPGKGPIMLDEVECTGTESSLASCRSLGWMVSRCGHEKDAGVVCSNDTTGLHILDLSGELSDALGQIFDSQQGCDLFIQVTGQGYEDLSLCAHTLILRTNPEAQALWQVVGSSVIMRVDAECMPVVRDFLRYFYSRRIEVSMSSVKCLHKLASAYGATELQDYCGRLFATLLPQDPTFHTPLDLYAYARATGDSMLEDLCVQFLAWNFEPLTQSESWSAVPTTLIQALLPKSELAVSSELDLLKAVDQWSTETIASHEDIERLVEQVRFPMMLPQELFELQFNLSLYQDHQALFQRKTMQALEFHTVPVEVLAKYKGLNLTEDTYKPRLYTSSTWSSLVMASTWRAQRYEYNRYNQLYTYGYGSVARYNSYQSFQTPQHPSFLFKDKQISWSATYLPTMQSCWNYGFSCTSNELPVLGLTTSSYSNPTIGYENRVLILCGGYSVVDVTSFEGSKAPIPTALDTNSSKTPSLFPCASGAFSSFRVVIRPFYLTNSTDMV

T2: human C-reactive protein (CRP), native protein of human serum (human, UniProt P02741 19-224)
T2 construct: mature; also called human CRP; human homolog of CRP
T2 sequence: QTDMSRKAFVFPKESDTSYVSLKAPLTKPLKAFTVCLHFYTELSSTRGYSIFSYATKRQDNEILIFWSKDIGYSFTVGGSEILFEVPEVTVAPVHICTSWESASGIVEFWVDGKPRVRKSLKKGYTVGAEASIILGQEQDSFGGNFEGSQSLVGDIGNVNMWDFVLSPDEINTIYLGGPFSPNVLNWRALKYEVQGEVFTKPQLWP

B1: rAAV-6 (recombinant adeno-associated virus vector with AAV-6 capsid) (other)
chain: MAADGYLPDWLEDNLSEGIREWWDLKPGAPKPKANQQKQDDGRGLVLPGYKYLGPFNGLDKGEPVNAADAAALEHDKAYDQQLKAGDNPYLRYNHADAEFQERLQEDTSFGGNLGRAVFQAKKRVLEPFGLVEEGAKTAPGKKRPVEQSPQEPDSSSGIGKTGQQPAKKRLNFGQTGDSESVPDPQPLGEPPATPAAVGPTTMASGGGAPMADNNEGADGVGNASGNWHCDSTWLGDRVITTSTRTWALPTYNNHLYKQISSASTGASNDNHYFGYSTPWGYFDFNRFHCHFSPRDWQRLINNNWGFRPKRLNFKLFNIQVKEVTTNDGVTTIANNLTSTVQVFSDSEYQLPYVLGSAHQGCLPPFPADVFMIPQYGYLTLNNGSQAVGRSSFYCLEYFPSQMLRTGNNFTFSYTFEDVPFHSSYAHSQSLDRLMNPLIDQYLYYLNRTQNQSGSAQNKDLLFSRGSPAGMSVQPKNWLPGPCYRQQRVSKTKTDNNNSNFTWTGASKYNLNGRESIINPGTAMASHKDDKDKFFPMSGVMIFGKESAGASNTALDNVMITDEEEIKATNPVATERFGTVAVNLQSSSTDPATGDVHVMGALPGMVWQDRDVYLQGPIWAKIPHTDGHFHPSPLMGGFGLKHPPPQILIKNTPVPANPPAEFSATKFASFITQYSTGQVSVEIEWELQKENSKRWNPEVQYTSNYAKSANVDFTVDNNGLYTEPRPIGTRYLTRPL
B2: human galectin 3 binding protein (G3BP), native protein of human serum (other)
chain: VNDGDMRLADGGATNQGRVEIFYRGQWGTVCDNLWDLTDASVVCRALGFENATQALGRAAFGQGSGPIMLDEVQCTGTEASLADCKSLGWLKSNCRHERDAGVVCTNETRSTHTLDLSRELSEALGQIFDSQRGCDLSISVNVQGEDALGFCGHTVILTANLEAQALWKEPGSNVTMSVDAECVPMVRDLLRYFYSRRIDITLSSVKCFHKLASAYGARQLQGYCASLFAILLPQDPSFQMPLDLYAYAVATGDALLEKLCLQFLAWNFEALTQAEAWPSVPTDLLQLLLPRSDLAVPSELALLKAVDTWSWGERASHEEVEGLVEKIRFPMMLPEELFELQFNLSLYWSHEALFQKKTLQALEFHTVPFQLLARYKGLNLTEDTYKPRIYTSPTWSAFVTDSSWSARKSQLVYQSRRGPLVKYSSDYFQAPSDYRYYPYQSFQTPQHPSFLFQDKRVSWSLVYLPTIQSCWNYGFSCSSDELPVLGLTKSGGSDRTIAYENKALMLCEGLFVADVTDFEGWKAAIPSALDTNSSKSTSSFPCPAGHFNGFRTVIRPFYLTNSSGVD
notes: also called hu-G3BP; huG3BP

Columns and labels:
[1] = target: T1, murine G3BP (mouse cyclophilin …); assay: AAV6 incubated with seronegative murine serum, ultracentrifugation, 2D gel
[2] = target: B2; assay: surface plasmon resonance imagery, rAAV immobilised on glass prism, hu-G3BP injected
[3] = target: T2, human C-reactive protein (CRP), native …; assay: rAAV-6 immobilised on AVB-Sepharose incubated with human serum; PAGE and Western blot with human CRP specific antibodies
[4] = target: rAAV-2 (recombinant adeno-associated virus vector with AAV-2 capsid) (adeno-associated virus serotype 2, UniProt P03135 1-735); assay: rAAV immobilised on AVB-Sepharose beads incubated with seronegative human serum; Western blot for G3BP
Chain of rAAV-2 (recombinant adeno-associated virus vector with AAV-2 capsid) (P03135 whole entry): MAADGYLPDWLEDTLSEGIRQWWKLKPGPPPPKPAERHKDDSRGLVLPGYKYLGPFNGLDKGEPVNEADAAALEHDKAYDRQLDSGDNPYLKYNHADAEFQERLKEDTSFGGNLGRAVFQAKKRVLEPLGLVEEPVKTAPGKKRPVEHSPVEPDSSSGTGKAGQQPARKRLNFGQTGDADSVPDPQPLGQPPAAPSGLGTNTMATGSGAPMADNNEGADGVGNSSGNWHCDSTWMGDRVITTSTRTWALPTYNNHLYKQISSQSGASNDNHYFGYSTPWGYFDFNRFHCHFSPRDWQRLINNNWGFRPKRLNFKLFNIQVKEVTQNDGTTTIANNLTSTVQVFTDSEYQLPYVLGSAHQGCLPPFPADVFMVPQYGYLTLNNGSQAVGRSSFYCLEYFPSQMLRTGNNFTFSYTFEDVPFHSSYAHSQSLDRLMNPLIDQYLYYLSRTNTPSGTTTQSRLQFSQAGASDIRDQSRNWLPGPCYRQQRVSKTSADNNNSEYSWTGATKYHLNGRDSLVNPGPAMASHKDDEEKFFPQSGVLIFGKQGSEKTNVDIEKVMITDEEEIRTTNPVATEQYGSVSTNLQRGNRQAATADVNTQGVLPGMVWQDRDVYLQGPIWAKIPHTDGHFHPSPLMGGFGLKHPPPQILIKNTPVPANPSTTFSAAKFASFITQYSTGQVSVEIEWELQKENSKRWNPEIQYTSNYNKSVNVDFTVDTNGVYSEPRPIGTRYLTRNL

Binder | binding result [1] | Ka [2] [M⁻¹] | binding result [3] | binding result [4]
B1 | no binding | ~1e+09 | no binding | 
B2 |  |  |  | no binding
